For the assay, the target named is autoinducing peptide 1 (AIP1), active (cyclized), N-terminally biotinylated (Staphylococcus aureus).

Take human LDL (apoB100) (natural protein): the IC50 of inhibition of agr::P3-yfp promoter activation in S. aureus AH1677 (agr-I) cultured with 50 nM exogenous AIP1 and increasing concentrations of lipoprotein was 2.3 nM.

With “apoB48-containing lipoprotein particles (apoB48-LP) from serum of ApoE-/- mice (natural protein)”, the IC50 of inhibition of agr::P3-yfp promoter activation in S. aureus AH1677 (agr-I) cultured with 50 nM exogenous AIP1 and increasing concentrations of lipoprotein came out at 3.5 nM.

These data come from article PMC4420250.
